Measured values taken from the DeepSol protein solubility set.

Assay: soluble on expression in E. coli; label from the status in PepcDB or PDB records

Row | Sequence | soluble on expression in E. coli
1 | MTTAVQPSDTTGFGGGPAGSRASDLIQFQEIMSESAESSSSSSQTNVSAANTLPRESNGQNYADDPSHVYTNIREIEELNSRPVPPTPRADAQPRRDLLNGWFEYETDVGRTFFFNKETGKSQWIPPRFIRTPAQVQEFLRATRTNLDTTCSFQGSSTSSSEEQKENKMRESLADDDRKSQLIEDEEVFDEVCDDVDEQSSPVIDLQSRPLPIPFSDSFTDDEDEDDVKPIEGSIASDSDFDEEPVPTSSRKASTASGVMMPHPYAHVSSFQSTFPRAKNEDTDKLASYVIPPDANETSKTPTAIRVRRPSPTNLRSVSFQNKCTVLKNVPMPQVLPTTSSSFDHHPQYHSNTPDRPILMEDSADFTPSSRCEERRGSGDGREPVRTIRCGDLERSENDEPAEKVVKPKKREWITNYMYLTTAHLILYKDQKSAEKHGKHYDAPQGVWDLRGASVTWYQDNRDVQKKKQRKYIQLELCNTKKYLLRGPNDTEAVEWYKSLEEVVAKLPSPGSSNQPMIDVTNGVARNPSYIGSTRPLSHALIPISRSMRRRDDPMSQSAIETVSTSVSTDEPRPSKETIIEKLRRFFRTRPTVESLKEKGIYKPEPVFGSTLSAICQHENSLVPKFIRVITEVIESKGLETDGIYRVSGNLSAVQKIRCQADQDNYKALVSEEDIHVLTGALKLFFRELTDPLFPISLHKEYTSAMQMPNATTRFKKFEELLSRLPNENRETLKMLLRHLNRVASHSSQNRMQQHNLAIVFGPTLFHNGDGAVNLATKNKKAGKKAKPSKKEETQATPVQSNSHLAFSMIMQSQIVQYLLESANKFDILKAPVNIGR | not soluble
2 | KGTLYVVGTPIGNLRDITLRALEILSAVDCIAAEHIQHAQKLLAGHALHTTSTRIMPLHQHNEGSAVEKIIELLGSGKSVALISDAGTPAISDPGALLVQQVLARSLPVVPIPGA | not soluble
3 | MGSDKIHHHHHHMTTINAANAGTYAFDDQFKVNRMGYGVMQLTGPGTWGPYADPENGVKVVKKALEYGVNFFDTADSYGPWFADRYLAAGLKDAANRDQIFISDKVGQTRQGPNVWTPLGEPRYLRQQVEVSMMTLGIDHEDLVFLHRIDPHYSIADQVGELKKLQDEGKIKHIGLSQVTVDQIKEAQQVAKIDAIENLYNVANHGDDDVVDYAASQKMAFLPWFPLATGELAQAGSVLSTMAQKYQVSPAQIALAWLLKRSDNIIPIPGTSSIEHLRDNVAAANVDLTTADFNGLSQLSVK | not soluble
4 | MLHCLDEFGNLKLKAIIDWQGVSTLPPGLDLSRLLMGCLSAHERRERGLEMLKLYHETFNQVLGKELFSFQELQDSYNLYYPMMAMALLPLVSSLAENSQVSEVEKAQIRFKTETKLVAMMEDLIEVHEYNLKHFPEILKG | not soluble
5 | MAEGDLSFFVMLARRESFSATAQDLGLSASAVSRRLARLEDRLGVRLLNRTTRKVSLTSEGEAYYGAALRLLDEIADLEHNLSQGRDRPAGLLRINATLGFGRTHLAPAIARFRRIHPAVEVQLLLTDAPLNLVEEGIDLGIRFGAPPFGRMVMRLLQRNRRFLCAAPSYLEARGVPQSLTDLQQHSCIVLRQDHDAYDVWRFDDIGEASPSAKVSGELSTNDGEIALAWVLDGQGIMLRSEWDIAQHVREGRLRLLLPHYRQTANIHAIYPERHNLSAKVRVFADHLAAHVRDADARMPLQLAAAELRAATARA | not soluble
6 | MTKPLVIFGSGDIAQLAHYYFTRDSEYEVVAFTVDRDYASVSEFCGLPLVAFDEVAQRFPPESHAMFVALAYAKLNGVRKEKYLAAKALGYELASYVSSHATVLNDGRIGENVFLLEDNTIQPFVSIGNNVTLWSGNHIGHHSTIHDHCFLASHIVVSGGVVIEEQSFIGVNATLRDHITIGSRCVVGAGALEHHHHHH | not soluble
7 | MQARRYLLRPAARLRRSRRIATAAPERLWLFDLDNTLHDTSHAIFPLIDRGMTEAVAETLAVDEATANRLRAEYWRRYGATVIGLVRHHGVDADAFLHRSHNFEVAPLVRAETALADKLRRLPGRKVLLTNAPLHYARAVLRHLGLLRQFDSIWAIEQMCMHGQFRPKPSDALLRYVLAREGVPAARAVLIEDTLDNLRSARRVGLRTVHVFHPGTPFARGHRQRPGYVDLRVNSVSDLLLRRRPLRG | not soluble
8 | MSKWLNVGKIVNTHGVRGEVRVLSTTDFEDDRFSSGKTLYVMRPNQNERVAVTVASHRKHKNFDLLCFEGYPSINDVEAFKGGRLQVPIEDRPELGEGEFFYHEIIGCSVVTIAGEELGKVKEILSPGANDVWVVQCRRGGKDLLIPYIEQVVKQVDLEKQQITIEPMEGLLEAAALEHHHHHH | soluble
9 | MVRILPIILSALSSKLVASTILHSSIHSVPSGGEIISAEDLKELEISGNSICVDNRCYPKIFEPRHDWQPILPGQELPGGLDIRINMDTGLKEAKLNDEKNVGDNGSHELIVSSEDMKASPGDYEFSSDFKEMRNIIDSNPTLSSQDIARLEDSFDRIMEFAHDYKHGYKIITHEFALLANLSLNENLPLTLRELSTRVITSCLRNNPPVVEFINESFPNFKSKIMAALSNLNDSNHRSSNILIKRYLSILNELPVTSEDLPIYSTVVLQNVYERNNKDKQLQIKVLELISKILKADMYENDDTNLILFKRNAENWSSNLQEWANEFQEMVQNKSIDELHTRTFFDTLYNLKKIFKSDITINKGFLNWLAQQCKARQSNLDNGLQERDTEQDSFDKKLIDSRHLIFGNPMAHRIKNFRDEL | soluble
10 | MESALQKAAGEGMDEFIQVFTDKYKEIIGGELTADTMPLLTGEQHSLLAYQIFRDEIMFGGFCQLIQNGYGGYIFDNPFAKVMRLWGAEEFSKLVYKAKKIYDANRKDLEKERTDDEFMAMYEQYEAFDDLEEAYLDMEEQVTTLVASYVDNHLELFAKIIK | not soluble
11 | MAEHEQVNWPYVNTKLKRDPAVEAQIEKLLAKMTIEQKVAQMIQPEIGYLTVEQMRKYGFGSYLNGGNTAPYGNKRADQATWLKYADEMYLAAMDSTLDGIAIPTVWGTDAMHGHSNVYGATLFPHNIGLGAARDTDLIKRIGQATAKEVAATGIEWSFAPTVAVVRDDRWGRTYESYSEDPDLVKRYAGEMVTGIQGDVGADFLKGSNRIATAKHFVGDGGTERGVDRGNTLIDEKGLRDIHSAGYFSAINQGVQSVMASFNSWNGKRVHGDKHLLTDVLKNQLGFDGFVVSDWNAHKFVEGCDLEQCAQAINAGVDVIMVPEHFEAFYHNTVKQVKAGVIAESRINDAVRRFLRAKIRWGVFTKSKPSARPESQHPQWLGAAEHRTLAREAVRKSLVLLKNNESILPIKASSRILVAGKGANAINMQAGGWSVSWQGTDNTNSDFPNATSIFSGLQSQVTKAGGKITLSESGEYTSKPDVAIVVIGEEPYAEWFGDIELLEFQHETKHALALLKQLKADNIPVVTVFLSGRPLWVNKELNASDAFVAAWLPGSEGEGVADVLLTNKQGKTQFDFTGKLSFSWPKYDDQFTLNLNDADYDPLFAYGYGLTYQDNINVPVLSEKTSPKKTVNSDSHPLFVRSLAKNMTWQLADTSTQKVLASGASATSGDKQSLLMQSVNLSYQEDGRGFNWRAQAALSLSYLEPTPLDSKFSTGYLELKMRIDKAPEQGANLQVMCSESNCLRDIDFSSFSQLMADKSWHTLAIPLHCDDSDQAEQPITDALRITSQNLSLAIADVALTIKPSDDSISLTCAKLEHHHHHH | soluble
12 | MSLEKVDFIKEDLIFSLLEKGKITDRNEIREILAKARECKGISLGEVAKLLYLEDEELLEELYDVAKYIKNKIYGKRVVLFAPLYTSNECTNNCLYCGFRHDNKELHRKTLSLEEIVEEAKAIERQGHKRLLLICGEDPRKTNVKHFTDAMEAIYKSTDIRRINVEAAPMTVEDYRELKKAGIGTYVIFQETYHRETYRIMHPVGKKANYDWRITAIDRAFEGGIDDVGVGALFGLYDYRFEVLGLLMHCMHFEEKYGVGPHTISVPRLRPALGAPLKEIPYKVTDKDFKKIVAIFRIAVPYTGIILSTRERAEFRDELLSVGVSQISAGSKTNPGGYQEDDDHADQFEISDNRSLPKVMETICQQGYIPSFCTACYRRCRTGEHFMEYAKAGDIHEFCQPNAILTFKENLMDYADEPLRKMGEEVILKALEEIEDEKMKTLTIAKLEEIEKGKRDIYFEGHHHHHH | soluble
13 | TTDPILFMLSLVQQCRLSPKLAYGVIAGFRFLPLLKDEVQLIQQAHKIRGGAAESGIINKISALKRYTIPLLASAIRKAERTALAMESKGFTGSRNRTYYRTLSVNRRD | not soluble
